Data: publication PMC4872150

Biological target: nucleolin (UniProt P19338)
Test: SPR
Conditions: BIAcore 3000, nucleolin on CM5 chip, 10 mM HEPES, 150 mM NaCl, 3 mM EDTA, 0.005% surfactant P20, pH 7.4, 25 °C

Chain of UniProt P19338 (P19338 whole entry): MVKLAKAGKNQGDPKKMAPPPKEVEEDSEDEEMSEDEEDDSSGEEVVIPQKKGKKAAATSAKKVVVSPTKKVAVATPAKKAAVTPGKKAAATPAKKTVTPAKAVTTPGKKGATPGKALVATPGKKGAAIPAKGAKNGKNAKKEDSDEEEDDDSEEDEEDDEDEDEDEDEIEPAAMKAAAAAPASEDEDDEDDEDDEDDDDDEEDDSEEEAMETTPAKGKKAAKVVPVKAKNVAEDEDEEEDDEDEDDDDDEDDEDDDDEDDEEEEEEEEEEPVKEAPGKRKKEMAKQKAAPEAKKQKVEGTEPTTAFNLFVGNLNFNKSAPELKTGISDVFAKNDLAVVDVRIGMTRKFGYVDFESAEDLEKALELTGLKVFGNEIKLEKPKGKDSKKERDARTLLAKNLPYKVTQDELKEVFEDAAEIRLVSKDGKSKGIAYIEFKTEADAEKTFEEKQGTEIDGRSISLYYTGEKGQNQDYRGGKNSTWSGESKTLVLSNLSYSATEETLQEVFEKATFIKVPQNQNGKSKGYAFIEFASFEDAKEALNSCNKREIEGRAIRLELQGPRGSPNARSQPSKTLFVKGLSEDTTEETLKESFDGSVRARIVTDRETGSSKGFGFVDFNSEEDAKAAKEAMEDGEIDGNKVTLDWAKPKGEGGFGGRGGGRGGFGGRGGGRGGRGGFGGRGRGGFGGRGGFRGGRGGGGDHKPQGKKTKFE

Sequence: GGTGGTGGTGGNTGTGGTGGTGGNGG [FAN-1224dI]
- Kd (N = 2'-deoxyinosine at positions 12 and 24 (replacing T)): 32.2 nM

Sequence: GGTGGTGGTGGTNGTGGTGGTGGNGG [FAN-1324dI]
- Kd (N = 2'-deoxyinosine at positions 13 and 24 (replacing T)): 30.9 nM

Sequence: GGTGGTGGTGGTTGNGGTGGTGGNGG [FAN-1524dI]
- Kd (N = 2'-deoxyinosine at positions 15 and 24 (replacing T)): 37 nM

Sequence: GGTGGTGGTGGTTGTGGTGGTGGTGG [AS1411]
- Kd: 169 nM
